Laboratory results: article PMC3080137, “The Anti-Apoptotic Bcl-xL Protein, a New Piece in the Puzzle of Cytochrome C Interactome” (PLoS ONE, 2011)

Target: human Bcl-xL (residues 1-209, lacking the C-terminal hydrophobic tail) (human, UniProt Q07817-1 1-209, 15N-labelled where it was the observed protein)
Experiment: NMR titration; 15N-Bcl-xL titrated with unlabeled cytochrome c up to Bcl-xL:cytochrome c 1:10, 1H-15N HSQC; Kd from weighted average chemical shift variations; 300 K; 50 mM sodium phosphate pH 7.3, 150 mM NaCl, 1 mM DTT, 10% D2O
Settings: both partners purified

human Bcl-xL (residues 1-209, lacking the C-terminal hydrophobic tail), sequence (Q07817 1-209): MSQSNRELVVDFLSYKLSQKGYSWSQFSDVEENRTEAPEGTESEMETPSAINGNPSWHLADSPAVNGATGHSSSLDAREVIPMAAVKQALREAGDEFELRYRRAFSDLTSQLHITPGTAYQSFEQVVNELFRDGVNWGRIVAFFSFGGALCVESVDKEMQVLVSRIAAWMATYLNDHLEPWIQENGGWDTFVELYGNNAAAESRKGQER

Kd: 1 to 3 mM
B1: human cytochrome c (natural protein)
chain: not shown
modifications: heme, iron(II) (reduced) form; 15N-labelled where it was the observed protein
notes: cytochrome c, human, full length; also called reduced cytochrome c; source: expressed and purified as reported in the literature [36]; unlabeled and 15N-labeled form
